Experimental findings from article PMC7948472 are described below.

Read-outs that look alike come from different tables or passages of the source. Where no end group is shown, it is not given here. Me3 = trimethyl-lysine A value given as a limit tells only on which side of the number the result lay.

One test addresses F9, C9, E6, and D6. In words: SPR; Biacore T200; each Fab immobilised on a CM5 chip by amine coupling; increasing concentrations of free peptide injected; running buffer PBS with 0.005% Tween 20; global fit, steady-state analysis where dissociation was fast. (In general: Surface plasmon resonance follows binding to a sensor surface in real time, without labels.)
Test [1] deals with Fab C9 (rabbit). In words: SPR; Biacore T200; each Fab immobilised on a CM5 chip by amine coupling; peptides injected at increasing concentrations; running buffer PBS with 0.005% Tween 20; global fitting of the curves, or steady-state analysis where kinetic parameters could not be determined (fast dissociation, low affinity).
Test [2] deals with Fab D6 (rabbit). The test is described as above.
Test [3] concerns the target Fab E10 (rabbit). The description is as above.
Test [4] has as its target Fab C9 (rabbit). The description is as above. This is another data set of the same source.
In test [5] the target is Fab D6 (rabbit). The test is described as above. This is another data set of the same source.
Test [6] deals with Fab E10 (rabbit). Described as above. This is another data set of the same source.
Another test has as its target C9 Fab (rabbit). In words: SPR; Biacore T200; each Fab immobilised on a CM5 chip by amine coupling; increasing concentrations of free peptide injected; running buffer PBS with 0.005% Tween 20; global fit, steady-state analysis where dissociation was fast.
For a further test, the target named is D6 Fab (rabbit). The description is as above.
The next test concerns the target E6 Fab (rabbit). The test is described as above.
The target of a further test is F9 Fab (rabbit). The description is as above.
For another test, the target named is Fab E6 (rabbit). In words: SPR; Biacore T200; each Fab immobilised on a CM5 chip by amine coupling; peptides injected at increasing concentrations; running buffer PBS with 0.005% Tween 20; global fitting of the curves, or steady-state analysis where kinetic parameters could not be determined (fast dissociation, low affinity).
The target of the next test is Fab F9 (rabbit). Described as above.
Sequence of Fab F9 (rabbit) (heavy, as listed by the source, chain 1 of 2): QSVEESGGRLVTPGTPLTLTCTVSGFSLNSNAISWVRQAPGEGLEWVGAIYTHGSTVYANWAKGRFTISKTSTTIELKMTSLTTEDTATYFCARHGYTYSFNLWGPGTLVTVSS
Sequence of Fab F9 (rabbit) (light, as listed by the source, chain 2 of 2): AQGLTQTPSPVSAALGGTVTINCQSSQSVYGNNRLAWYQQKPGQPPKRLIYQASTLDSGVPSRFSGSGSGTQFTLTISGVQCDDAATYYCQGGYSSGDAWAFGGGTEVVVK

Sequence of Fab C9 (rabbit) (heavy, as listed by the source, chain 1 of 2): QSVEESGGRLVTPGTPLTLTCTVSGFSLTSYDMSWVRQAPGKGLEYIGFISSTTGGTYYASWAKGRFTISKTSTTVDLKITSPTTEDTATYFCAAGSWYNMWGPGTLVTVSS
Sequence of Fab C9 (rabbit) (light, as listed by the source, chain 2 of 2): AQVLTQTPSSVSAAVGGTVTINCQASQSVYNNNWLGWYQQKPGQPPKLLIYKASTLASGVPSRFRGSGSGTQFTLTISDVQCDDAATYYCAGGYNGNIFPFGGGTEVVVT
Sequence of Fab D6 (rabbit) (heavy, as listed by the source, chain 1 of 2): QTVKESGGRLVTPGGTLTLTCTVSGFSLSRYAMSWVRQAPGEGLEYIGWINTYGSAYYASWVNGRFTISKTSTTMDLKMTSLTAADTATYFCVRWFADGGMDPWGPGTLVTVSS
Sequence of Fab D6 (rabbit) (light, as listed by the source, chain 2 of 2): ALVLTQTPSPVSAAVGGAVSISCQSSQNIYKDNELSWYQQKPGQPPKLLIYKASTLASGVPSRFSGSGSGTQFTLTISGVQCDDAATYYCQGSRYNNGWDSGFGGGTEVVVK
Sequence of E6 Fab (rabbit) (heavy, as listed by the source, chain 1 of 2): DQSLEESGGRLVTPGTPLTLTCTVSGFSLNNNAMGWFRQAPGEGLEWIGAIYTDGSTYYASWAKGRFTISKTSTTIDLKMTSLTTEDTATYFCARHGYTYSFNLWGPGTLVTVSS
Sequence of E6 Fab (rabbit) (light, as listed by the source, chain 2 of 2): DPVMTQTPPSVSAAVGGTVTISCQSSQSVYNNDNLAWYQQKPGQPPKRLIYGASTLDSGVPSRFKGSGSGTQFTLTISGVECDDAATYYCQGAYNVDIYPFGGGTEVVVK

For orientation: Kd means the free concentration of one partner at which half of the binding sites on the other are occupied at equilibrium, for simple one-to-one binding. Turning to NPIFEKFGKGGTYP [MAP3K2 peptide, …], the Kd in the test with F9, C9, E6, and D6 amounted to 0.3 µM; with Fab C9 (rabbit) [1] it was 440 µM; with Fab D6 (rabbit) [2] it was 140 µM; with Fab E10 (rabbit) [3] it was 40 µM; with Fab C9 (rabbit) [4] it was 690 µM; with Fab D6 (rabbit) [5], 180 µM. This molecule came in with a Kd with Fab E10 (rabbit) [6] of 36 µM.
In general, koff refers to the rate constant with which the complex falls apart. The term kon denotes a measure of how fast the partners come together. For NPIFEKFGK(Me3)GGTYP [Methylated MAP3K2 peptide, …(me3)GGTYP], the Kd in the test with C9 Fab (rabbit) stood at 0.014 µM; with D6 Fab (rabbit), 0.054 µM; with E6 Fab (rabbit), 0.0009 µM; with F9 Fab (rabbit), 0.3 µM; with Fab E10 (rabbit) [3], 37 µM; with Fab E10 (rabbit) [6], 39 µM. For the same molecule, in the test with E6 Fab (rabbit), the fold difference in association rate constant against F9 is greater than 100 fold. Moreover, the koff in the test with Fab C9 (rabbit) [1] was determined as 0.006 s⁻¹; with Fab D6 (rabbit) [2], 0.096 s⁻¹; in the test with Fab E6 (rabbit), 0.0029 s⁻¹; in the test with Fab F9 (rabbit), 0.098 s⁻¹. Further, the kon with Fab C9 (rabbit) [1] is 480000 M⁻¹ s⁻¹; with Fab D6 (rabbit) [2], 1.9e+06 M⁻¹ s⁻¹; in the test with Fab E6 (rabbit), 3.4e+06 M⁻¹ s⁻¹; with Fab F9 (rabbit) it was 330000 M⁻¹ s⁻¹.
For the molecule NPIFEKFGK(Me3)GGTYP-NH2 [Methylated MAP3K2 peptide in which the C terminus was amidated], the Kd came to 0.0111 µM with Fab C9 (rabbit) [1] and 0.0591 µM with Fab D6 (rabbit) [2].
